Residue numbers refer to the chain shown, from its start. Numbers in names are those of the source.
Tests used:
fibrillar Aβ = biological target: T1, fibrillar Aβ (Homo sapiens, UniProt P05067, E693Q); assay: Solid-phase binding assay, competition against biotinylated sAβPPα
T1 construct: made in house; host or cells: chemical synthesis (solid-phase Fmoc)
Experimental: Aβ peptides or amylin were assembled into fibrils as described above. […] Two μg of each fibrillar Aβ peptide, fibrillar amylin, or ovalbumin in 100 μl of phosphate-buffered saline (PBS) were dried in a 96-well microtiter plate (Corning, Cambridge, Mass.) overnight at 37° C. The wells were rinsed with PBS three times and blocked with 100 μl per well PBS containing 1 mg/ml bovine serum albumin (BSA) for 1 hour at room temperature. After rinsing three times with PBS, known concentrations of biotinylated sAβPPα in PBS containing 0.1 mg/ml BSA were incubated in triplicate (100 μl per well) for 1 hour at room temperature. After rinsing the wells with PBS three times, 100 μl of streptavidin conjugated to horseradish peroxidase in PBS containing 0.1 mg/ml BSA (1:800) was added for 1 hour at room temperature. The binding of biotinylated sAβPPα was detected using the colorimetric substrate o-phenylenediamine dihydrocholride as described by the manufacturer (InVitrogen). Briefly, the substrate was diluted in buffer (0.1 M sodium citrate, pH 4.5) to a final concentration of 1 mg/ml. H202 was added to a final concentration of 0.012% immediately before 100 μl of the substrate was added to each microtiter well. […] The conversion of the colorimetric substrate was measured at a wavelength of 490 nm using a Molecular Dynamics Vmax kinetic plate reader (Sunnyvale, Calif.). […]

[1] = biological target: T2, HCSM cell surface fibrillar Aβ (Homo sapiens, UniProt P05067, E693Q); assay: Endogenous sAβPPα binding to fibrillar Aβ on HCSM cell surface; format: cell-based; conditions: AβPP-(105-119) at higher concentrations
T2 construct: made in house; host or cells: chemical synthesis (solid-phase Fmoc)

[2] = biological target: T3, fibrillar Dutch-type Aβ-(1-40) (Homo sapiens, UniProt P05067, E693Q); assay: Solid-phase binding of GST-AβPP-(18-119) proteins to fibrillar Dutch-type Aβ; conditions: for binding to fibrillar Aβ compared with wild-type GST-AβPP-(18-119): alanine substitution mutants
T3 construct: made in house; host or cells: chemical synthesis (solid-phase Fmoc)
Experimental: (§1) Aβ peptides or amylin were assembled into fibrils as described above. […] Two μg of each fibrillar Aβ peptide, fibrillar amylin, or ovalbumin in 100 μl of phosphate-buffered saline (PBS) were dried in a 96-well microtiter plate (Corning, Cambridge, Mass.) overnight at 37° C. The wells were rinsed with PBS three times and blocked with 100 μl per well PBS containing 1 mg/ml bovine serum albumin (BSA) for 1 hour at room temperature. After rinsing three times with PBS, known concentrations of biotinylated sAβPPα in PBS containing 0.1 mg/ml BSA were incubated in triplicate (100 μl per well) for 1 hour at room temperature. After rinsing the wells with PBS three times, 100 μl of streptavidin conjugated to horseradish peroxidase in PBS containing 0.1 mg/ml BSA (1:800) was added for 1 hour at room temperature. The binding of biotinylated sAβPPα was detected using the colorimetric substrate o-phenylenediamine dihydrocholride as described by the manufacturer (InVitrogen). Briefly, the substrate was diluted in buffer (0.1 M sodium citrate, pH 4.5) to a final concentration of 1 mg/ml. H202 was added to a final concentration of 0.012% immediately before 100 μl of the substrate was added to each microtiter well. The solution was developed for =30 min at room temperature and quenched by the addition of 50 μl of 4N H2SO4 to each well. The conversion of the colorimetric substrate was measured at a wavelength of 490 nm using a Molecular Dynamics Vmax kinetic plate reader (Sunnyvale, Calif.).
(§2) Bound secondary antibody was detected using the colorimetric substrate as described above.
However, this small peptide was not nearly as effective as the larger, recombinantly expressed AβPP-(18-119) in binding to fibrillar Aβ. Therefore, alanine-scanning mutagenesis studies of the AβPP-(105-119) sequence within AβPP-(18-119) were performed to further identify key epitopes important in facilitating its binding to fibrillar Aβ. Alanine residues were introduced from Cys^105 through Cys^117 of AβPP-(18-119) by site-directed mutagenesis of the AβPP-(18-119) cDNA. Each mutant AβPP-(18-119) cDNA was expressed as a GST fusion protein and purified, and the concentrations were carefully determined by quantitative immunoblotting as described in “Experimental Procedures”.

HCSM cells = assay: HCSM cell viability (live/dead assay) after Dutch-type Aβ-(1-40); format: cell-based, human; conditions: 25 μM Dutch-type Aβ-(1-40), 1 μM protein, 6 days at 37° C.
Text: Primary cultures of HCSM cells were established and characterized. Two lines of HCSM cells were used in these studies. One was derived from a AD patient and the other was derived from a person control. All HCSM cells were used between passages 4-7 and maintained in 24-well tissue culture dishes with Dulbecco's […] containing 10% fetal bovine serum (Gemini Bio-Products, Calabasas, Calif.), non-essential amino acids, and antibiotics (Invitrogen). For experiments, near-confluent cultures of HCSM cells were placed in serum-free medium containing 0.1% BSA, non-essential amino acids, and antibiotics overnight prior to treatment. Freshly solubilized Dutch-type Aβ-(1-40) at a final concentration of 25 μM was added to the cultures in serum-free medium and incubated at 37° C. for 6 days. Cells were routinely viewed and photographed using an Olympus IX70 phase-contrast microscope. Cell viability was quantified using a fluorescent live/dead cell assay following the manufacturer's protocol (Molecular Probes, Eugene, Oreg.). The number of live and dead cells were counted from several fields (n=4) from at least three separate wells for each experiment.
Incubation of HCSM cells with pathogenic Dutch-type Aβ-(1-40) leads to cell death. […]

[3] = biological target: T4, fibrillar wild-type Aβ-(1-42) (Homo sapiens, UniProt P05067); assay: Solid-phase binding of GST-AβPP-(18-119) proteins to fibrillar wild-type Aβ-(1-42)
T4 construct: made in house; host or cells: chemical synthesis (solid-phase Fmoc)
Experimental: as §1, with “H202 was added to a final concentration of 0.012% immediately before 100 μl of the substrate was added to each microtiter well. The solution was developed for =30 min at room temperature and quenched by the addition of 50 μl of 4N H2SO4 to each well.” left out
as §2

fibrillar amylin peptide = biological target: T5, fibrillar amylin peptide (Homo sapiens, UniProt P10997); assay: Solid-phase binding of GST-AβPP-(18-119) proteins to fibrillar amylin
T5 construct: Amylin peptide was obtained from Bachem (San Carlos, Calif.); purchased Bachem (San Carlos, Calif.)
T5 sequence (P10997 34-70 limits assumed): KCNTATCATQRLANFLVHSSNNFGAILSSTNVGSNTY
Experimental: as §1, with “H202 was added to a final concentration of 0.012% immediately before 100 μl of the substrate was added to each microtiter well. The solution was developed for =30 min at room temperature and quenched by the addition of 50 μl of 4N H2SO4 to each well.” left out
as §2

Aβ = assay: Recombinant MBP regions tested for ability to bind Aβ and inhibit fibrillogenesis; format: binding; conditions: Aβ form not stated
Experimental: (§3) Using recombinant methodology to express and purify regions of the 18.5 kDa human MBP protein and test their abilities to bind Aβ and inhibit fibrillogenesis, cDNAs were prepared for the following regions of MBP shown in FIG. 3. The cDNAs for MBP fragments were cloned into pTYB11 plasmids containing an ampr gene and transformed into competent E. coli BL21 DE3 cells. Expression of cDNAs in this vector results in a fusion protein containing a chitin binding domain (CBD) as well as a self-cleavable intein protein from S. cerevisiae. CBD-Intein-MBP fusion proteins were captured on chitin beads from the resulting cell lysates. MBP protein fragments were eluted by inducing the cleavage between the C-terminus of the intein and the N-terminus of MBP by exposure to dithiothreitol. […] MBP was further purified by cation exchange chromatography on CM52 resin, resulting in a >95% pure protein preparations. Each of the four MBP fragments were tested for binding to Dutch/Iowa Aβ40 and wild-type Aβ42 by surface plasmon resonance (FIG. 4).
Such a motif, KRGX1X2X3X4X5X6HP (SEQ ID NO:1), was found in MBP 33-64 and in AβPP 54-64. Specifically, the motif in MBP spans residues 54-64. […]

[4] = biological target: Dutch/Iowa CAA mutant Aβ40 (Aβ40DI) (Homo sapiens, UniProt P05067, D694N/E693Q); assay: Surface plasmon resonance binding to immobilized Dutch/Iowa Aβ40
Experimental: All runs were performed on a Biacore 2000 instrument using 10 mM HEPES (pH 7.4), 150 mM NaCl, 3 mM EDTA, and 0.005% (v/v) Tween 20 as running buffer and diluent. Streptavidiri was conjugated to the surface of three flow cells of a CM5 chip at 10 μl/min using amine coupling chemistry to a final average response level of 1890.2 response units. N-terminally biotinylated Aβ peptides were resuspended in Me2SO to 2.5 mM and serially diluted to 13 nM immediately before application. Biotinylated Aβ40WT and Aβ40DI were bound to individual flow cells at 10 μl/min to achieve an average relative response level of 157.1 response units, leaving flow cell 1 as reference. […] The resultant Rmax of these surfaces was ˜700 response units with MBP as analyte. Purified MBP was passed over all four flow cells at 5, 10, 25, 50, and 100 nM at a flow rate of 30 μl/min for kinetic measurements. […] Surfaces were regenerated with 0.2 M glycine (pH 2.0) and 150 mM NaCl between runs. The resulting sensorgrams were analyzed by BIAanalysis software. Triplicate concentration series were used for each surface.
as §3

Aβ40DI = Aβ40DI (Homo sapiens, UniProt P05067, D694N/E693Q); assay: Thioflavin T fluorescence assay of Aβ40DI fibril formation; format: biochemical; conditions: 12.5 μM Aβ40DI, 1.56 μM protein, PBS, 37° C.
Experimental: FIG. 16 Thioflavin T analysis of inhibition of CAA mutant Aβ fibril formation by MBP. Aβ40DI at a concentration of 12.5 μM in PBS in the absence (□) or presence of 1.56 μM MBP(□) or bovine a-lactalbumin (Lalb; □) as a control. At specific time points, aliquots were collected from each sample and analyzed by thioflavin T binding and fluorescence to determine fibrillar assembly. Data represent the means±S.D. of triplicate samples. A.U., arbitrary units.
The Aβ B binding properties of the exemplary fragments of MBP described herein were determined in a thioflavin T fluorescence assay as follows: Lyophilized Aβ peptides were first resuspended with Me2SO to 2.5 mM, diluted to 12.5 μM in PBS, and then incubated at 37° C. with rocking either alone or with 1.56 μM MBP or bovine α-lactalbumin. Control samples containing 0.5% Me2SO and 1.56 μM MBP or lactalbumin in PBS were also included. At each time point, 100 μl samples of each reaction were placed in a 96-well microplate in triplicate, and 5 μl of 100 µM thioflavin T was added. The plate was mixed and incubated at 22° C. in the dark for 10 min. Fluorescence was measured at 490 nm with an excitation wavelength of 446 nm in a SpectraMax spectrofluorometer (Molecular Devices, Sunnyvale, Calif.) using SoftMax Pro control software. It is apparent that the method enables persons of skill in the art to determine the binding properties of MBP, variants thereof, and fragments thereof for any Aβ-peptide, including mutants thereof.

## AβPP-(102-116): synthesized overlapping 15-mer peptide of AβPP residues 102-116 (RKQCKTHPHFVIPYR)
Fibrillar Aβ; data not shown
  competing activity of overlapping 15-mer peptides: approximately half that of AβPP-(105-119)

## AβPP-(105-119): synthesized 15 amino acid peptide spanning residues 105-119 of AβPP (CKTHPHFVIPYRCLV)
Fibrillar Aβ; 1 mM peptide
  competition of biotinylated sAβPPα binding to fibrillar Aβ: ≈ 80%
[1]
  inhibition of endogenous sAβPPα binding to HCSM cell surface fibrillar Aβ: partially diminish

## C117A mutant GST-AβPP-(18-119): GST-AβPP-(18-119) with alanine substitution at Cys117
[2]
  binding to fibrillar Aβ compared with wild-type GST-AβPP-(18-119): markedly diminished binding
[2]; listed as C117A
  binding to fibrillar Aβ compared with wild-type GST-AβPP-(18-119): substantially affects

## F111A
[2]
  binding to fibrillar Aβ compared with wild-type GST-AβPP-(18-119): little or no effect

## GST-AβPP-(18-119): glutathione S-transferase fusion protein of AβPP residues 18-119, wild-type
HCSM cells
  Aβ-induced HCSM cell death: < 10%
[1]
  inhibition of endogenous sAβPPα binding to HCSM cell surface fibrillar Aβ: completely inhibited

## H110A mutant GST-AβPP-(18-119): GST-AβPP-(18-119) with alanine substitution at His110
[2]
  fibrillar Aβ binding compared with wild-type GST-AβPP-(18-119): < 10%
[2]; listed as H110A
  binding to fibrillar Aβ compared with wild-type GST-AβPP-(18-119): markedly decreased binding
[2]; listed as His^110
  binding to fibrillar Aβ compared with wild-type GST-AβPP-(18-119): highly diminished
[3]
  binding to fibrillar wild-type Aβ-(1-42) compared with wild-type GST-AβPP-(18-119): considerably reduced binding
HCSM cells
  prevention of Aβ-induced HCSM cell death: incapable of preventing the cytotoxic effects
Fibrillar amylin peptide
  binding to fibrillar amylin peptide compared with wild-type GST-AβPP-(18-119): considerably reduced binding

## I113A: GST-AβPP-(18-119) with alanine substitution at Ile113
[2]
  binding to fibrillar Aβ compared with wild-type GST-AβPP-(18-119): markedly decreased binding
[2]; listed as Ile^113
  binding to fibrillar Aβ compared with wild-type GST-AβPP-(18-119): highly diminished
[3]
  binding to fibrillar wild-type Aβ-(1-42) compared with wild-type GST-AβPP-(18-119): considerably reduced binding
Fibrillar amylin peptide
  binding to fibrillar amylin peptide compared with wild-type GST-AβPP-(18-119): considerably reduced binding

## MBP 50-64: MBP residues 50-64, RGAPKRGSGKDSHHP (SEQ ID NO: 51)
Aβ
  abilities to bind Aβ and inhibit fibrillogenesis: carries all the binding activity

## P109A
[2]
  binding to fibrillar Aβ compared with wild-type GST-AβPP-(18-119): little or no effect

B1: MBP1 ΔKRG: MBP1 mutant with alanine substitutions in the KRG region (residues 54-56) (protein)
chain: MASQKRPSQRHGSKYLATASTMDHARHGFLRPHRDTGILDSIGRFFGGDRGAPAAASGKDSHHP
[4]
  binding to Dutch/Iowa Aβ40 (Aβ40DI) by surface plasmon resonance: do not bind
Aβ40DI
  inhibition of Aβ40DI fibril assembly (thioflavin T): lack fibril inhibition

B2: MBP1 S57A (protein)
chain: B1 chain with A54K, A55R, A56G, S57A
[4]
  binding to Dutch/Iowa Aβ40 (Aβ40DI) by surface plasmon resonance: does bind

B3: MBP1 ΔHP: MBP1 mutant with alanine substitutions at HP (residues 63-64) (protein)
chain: B1 chain with A54K, A55R, A56G, H63A, P64A
[4]
  binding to Dutch/Iowa Aβ40 (Aβ40DI) by surface plasmon resonance: do not bind
Aβ40DI
  inhibition of Aβ40DI fibril assembly (thioflavin T): lack fibril inhibition

Source: patent US9217013B2, “Treatment of amyloidoses using myelin basic protein and fragments thereof” (The Research Foundation for the State University of New York, priority 2008, dated 2015)
